Among the data in the supplement of paper PMC10567573 are protein stability index values, retold here.

± gives the standard deviation.

The nature of the data set: protein stability index of a GFP-peptide fusion (GPS, HEK-293T) (PSI 1-6); higher = more stable. Particulars: c terminus: a fixed tail appended.
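Note: 24-mer peptide tiles fused after GFP, lentivirally expressed, FACS-sorted into six equal bins by GFP/DsRed ratio, decoded by Illumina sequencing, PSI is the read-weighted mean bin number.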

Turning to CSYTDLLPQDEGGGGYSSVRYSDC [KCNA4], the protein stability index reads like this: (treatment: DMSO) 2.67 ± 0.27; (treatment: MLN4924 1 uM, 8 h) 2.68 ± 0.24.

Regarding CTNSPAIVRFSGQSRGVPAVSESY [FBXO34], the protein stability index (treatment: DMSO) is 3.21 ± 0.46 and the protein stability index (treatment: MLN4924 1 uM, 8 h) is 3.14 ± 0.45.

Sequence CVNMDRSFACQCPEGHVLRSDGKT [MATN2] displayed a protein stability index (treatment: DMSO) of 3.92 ± 0.21 and a protein stability index (treatment: MLN4924 1 uM, 8 h) of 4.22 ± 0.73.

As for CVQCKMPVCYQCLEEGKHSSHEVK [TRIM9], the protein stability index came to 4.08 ± 0.44 (treatment: DMSO) and 4.19 ± 0.45 (treatment: MLN4924 1 uM, 8 h).

Take CWYCNRDFDDEKILIQHQKAKHFK [ZNF207]: the protein stability index worked out at 4.59 ± 0.39 (treatment: DMSO) and 4.45 ± 0.22 (treatment: MLN4924 1 uM, 8 h).

As to CYDVYSPDKEEQLPFGPFNGTAWT [PKD2L1], the protein stability index (treatment: DMSO) is 2.75 ± 0.14 and the protein stability index (treatment: MLN4924 1 uM, 8 h) was found to be 2.59 ± 0.12.

Regarding DAELATRAIPELTKLLNDEDQVVV [CTNNB1], the protein stability index by setting is: (treatment: DMSO) 4.79 ± 0.22; (treatment: MLN4924 1 uM, 8 h) 4.8 ± 0.11.

DALTKLEQGEPLWTLEDEIHSPAH [ZNF649]: the protein stability index (treatment: DMSO) amounted to 3.49 ± 0.35 and the protein stability index (treatment: MLN4924 1 uM, 8 h) worked out at 3.65 ± 0.24.

As to DASEAHESSSRGEAGAPGEEDIQG [CHGB], the protein stability index came out at 5.69 ± 0.3 (treatment: DMSO) and 5.56 ± 0.28 (treatment: MLN4924 1 uM, 8 h).

On to DASSSTSTSSSFPSSFPSSSSSSS [MAGEA10], for which the protein stability index was determined as 5.07 ± 0.37 (treatment: DMSO) and 5.23 ± 0.085 (treatment: MLN4924 1 uM, 8 h).

As for DDDDHDDHEDNDKMNDSEGMDPER [NOL4L], the protein stability index runs as follows: (treatment: DMSO) 5.54 ± 0.29; (treatment: MLN4924 1 uM, 8 h) 5.54 ± 0.23.

DDEFFHFVLLCFAIGALLVCYHYY [TMEM40]: the protein stability index is 2.27 ± 0.39 (treatment: DMSO) and 2.37 ± 0.88 (treatment: MLN4924 1 uM, 8 h).

Regarding DDEGDSYSDNPCSCSQSHCCSRYL [SPRY1], the protein stability index (treatment: DMSO) stood at 4.45 ± 0.21 and the protein stability index (treatment: MLN4924 1 uM, 8 h) worked out at 4.57 ± 0.23.

Regarding DDPSLLKEAKTKYPNYEFISDNSI [FUT8], the protein stability index is, setting by setting: (treatment: DMSO) 3.58 ± 0.36; (treatment: MLN4924 1 uM, 8 h) 4.04 ± 0.53.

As for DDSCLNNDIPHSIPLEQGSSCNGP [FAN1], the protein stability index reads like this: (treatment: DMSO) 5.17 ± 0.19; (treatment: MLN4924 1 uM, 8 h) 5.09 ± 0.1.

DEEVSSLTCDALTELLAKITNTDV [CCND2]: the protein stability index is, setting by setting: (treatment: DMSO) 4.04 ± 0.44; (treatment: MLN4924 1 uM, 8 h) 4.28 ± 0.078.

DEMCANNDFVQVDPGQVGLINSNV [FAN1]: the protein stability index reads like this: (treatment: DMSO) 4.82 ± 0.2; (treatment: MLN4924 1 uM, 8 h) 4.78 ± 0.35.

Regarding DEPCAISGKWTFQRDSKRWSRLEE [DLC1], the protein stability index (treatment: DMSO) is 3.99 ± 0.14 and the protein stability index (treatment: MLN4924 1 uM, 8 h) stood at 3.91 ± 0.33.

As to DFGLAKEYIDPETKKHIPYREHKS [CSNK1G1], the protein stability index runs as follows: (treatment: DMSO) 4.26 ± 0.34; (treatment: MLN4924 1 uM, 8 h) 4.34 ± 0.086.

Sequence DFVMSLTFPFKILGDSGLGPWQLN [P2RY14] displayed a protein stability index (treatment: DMSO) of 3 ± 0.56 and a protein stability index (treatment: MLN4924 1 uM, 8 h) of 3.08 ± 0.74.

On to DGEGAGPGEQGGGKLVLSSLPKRL [ESRRA], for which the protein stability index reads like this: (treatment: DMSO) 4.94 ± 0.14; (treatment: MLN4924 1 uM, 8 h) 4.68 ± 0.15.

As to DGIDPFPLLMNRQRVPKVLVENAK [EFHC1], the protein stability index stood at 3.77 ± 0.24 (treatment: DMSO) and 3.97 ± 0.22 (treatment: MLN4924 1 uM, 8 h).

For the sequence DGIPQVYYFGPCGKYNAMVLELLG [CSNK1G3], the protein stability index runs as follows: (treatment: DMSO) 2.31 ± 0.58; (treatment: MLN4924 1 uM, 8 h) 2.27 ± 0.43.

Take DITPLMAAANGGHVKIVKLLLAHK [ANKRD17]: the protein stability index (treatment: DMSO) was 2.27 ± 0.2 and the protein stability index (treatment: MLN4924 1 uM, 8 h) came to 2.33 ± 0.41.

Take DIVDEDVKLMMSTLPKSLSLPTTA [MYBL2]: the protein stability index reads like this: (treatment: DMSO) 3.9 ± 0.27; (treatment: MLN4924 1 uM, 8 h) 3.7 ± 0.27.

In turn, DLERQNQEYQVLLDVRARLECEIN [KRT33B] had a protein stability index (treatment: DMSO) of 3.39 ± 0.29 and a protein stability index (treatment: MLN4924 1 uM, 8 h) of 3.58 ± 0.22.

As to DLIESDPDAWCDLSKFDLPEEPSA [MYBL2], the protein stability index by setting is: (treatment: DMSO) 5.01 ± 0.35; (treatment: MLN4924 1 uM, 8 h) 5.02 ± 0.17.

For the sequence DLISKSFQGSQGRAYLFNSVVNVG [YPEL3], the protein stability index runs as follows: (treatment: DMSO) 2.16 ± 0.22; (treatment: MLN4924 1 uM, 8 h) 2.11 ± 0.19.

On to DMKSLKQVLEMKNQQIHEQEKKIL [MTUS2], for which the protein stability index is, setting by setting: (treatment: DMSO) 4.23 ± 0.046; (treatment: MLN4924 1 uM, 8 h) 4.31 ± 0.33.

Turning to DMVQKSVSKTLPSTWSDPSVNISL [CLINT1], the protein stability index reads like this: (treatment: DMSO) 3.04 ± 0.19; (treatment: MLN4924 1 uM, 8 h) 3.2 ± 0.19.

Sequence DMVSNIELPTRIHEEVYFEPSSSK [MIA2] had a protein stability index (treatment: DMSO) of 3.68 ± 0.2 and a protein stability index (treatment: MLN4924 1 uM, 8 h) of 3.88 ± 0.39.

As to DNAPAVLHPRPDWEHSAPQRLPRS [PCDHGC5], the protein stability index was determined as 4.72 ± 0.17 (treatment: DMSO) and 4.81 ± 0.17 (treatment: MLN4924 1 uM, 8 h).

Regarding DNLSDLVMVRWNKSLEWSPWNCIL [IQUB], the protein stability index was 2.56 ± 0.76 (treatment: DMSO) and 2.39 ± 0.34 (treatment: MLN4924 1 uM, 8 h).

Consider DNSLINQIENLNIQVEDIRIRAIL [LOXL2], for which the protein stability index reads like this: (treatment: DMSO) 2.59 ± 0.25; (treatment: MLN4924 1 uM, 8 h) 2.66 ± 0.17.

Take DPLRSGTVLVSVTVFDANDNAPVF [PCDHGA10]: the protein stability index was 2.73 ± 0.42 (treatment: DMSO) and 2.82 ± 0.6 (treatment: MLN4924 1 uM, 8 h).

Consider DQTSLLVVDKETDNMYRLAHFSPF [PDZK1], for which the protein stability index by setting is: (treatment: DMSO) 2.61 ± 0.32; (treatment: MLN4924 1 uM, 8 h) 2.75 ± 0.26.

For the sequence DSDDPSVTLELSQLSMLPHLADLV [VDR], the protein stability index by setting is: (treatment: DMSO) 3.41 ± 0.31; (treatment: MLN4924 1 uM, 8 h) 3.62 ± 0.33.

For the sequence DSDSCQKCDQPFFWNFKQMWDSKK [WDFY2], the protein stability index was found to be 3.64 ± 0.16 (treatment: DMSO) and 3.71 ± 0.081 (treatment: MLN4924 1 uM, 8 h).

Regarding DSRLMCSSVQKALFEEEDHVKKLQ [CCDC3], the protein stability index was 4.71 ± 0.16 (treatment: DMSO) and 4.74 ± 0.25 (treatment: MLN4924 1 uM, 8 h).

On to DSYIPLHEDLLTRIGEATKPDGTV [NET1], for which the protein stability index runs as follows: (treatment: DMSO) 4.5 ± 0.43; (treatment: MLN4924 1 uM, 8 h) 4.73 ± 0.28.

For the sequence DTGEEEEGGDESDLSSESSIKKKF [EHMT1], the protein stability index is 5.46 ± 0.32 (treatment: DMSO) and 5.3 ± 0.12 (treatment: MLN4924 1 uM, 8 h).

Turning to DTGETSMLKRPVLLHLHQTAHADE [STEAP1], the protein stability index is, setting by setting: (treatment: DMSO) 4.63 ± 0.078; (treatment: MLN4924 1 uM, 8 h) 4.88 ± 0.18.

Take DTPCTNRGLPLLKTDFGSCLLQPP [DLC1]: the protein stability index reads like this: (treatment: DMSO) 3.41 ± 0.19; (treatment: MLN4924 1 uM, 8 h) 3.34 ± 0.34.

For DTYIVLAWISKIKGSPDVSASSDE [SMIM2], the protein stability index (treatment: DMSO) came to 2.42 ± 0.6 and the protein stability index (treatment: MLN4924 1 uM, 8 h) is 2.41 ± 0.27.

Consider DVVALLINHGAEVTCKDKKGYTPL [ANKRD44], for which the protein stability index runs as follows: (treatment: DMSO) 2.33 ± 0.55; (treatment: MLN4924 1 uM, 8 h) 2.27 ± 0.48.

With DYRKQLQYPNPLPVLSGAELEKAH [VPS39], the protein stability index (treatment: DMSO) was 4.5 ± 0.15 and the protein stability index (treatment: MLN4924 1 uM, 8 h) turned out to be 4.41 ± 0.12.

Turning to EADSQEQGHPQTGCECEDGPDGQE [GAGE1], the protein stability index came to 5.57 ± 0.28 (treatment: DMSO) and 5.57 ± 0.15 (treatment: MLN4924 1 uM, 8 h).

As to EAGAMTFHYIIEQGVCYLVLCEAA [SEC22B], the protein stability index (treatment: DMSO) came to 3.08 ± 0.23 and the protein stability index (treatment: MLN4924 1 uM, 8 h) was determined as 3.01 ± 0.33.

Take EALAKWAEGRTGFPWIDAIMTQLR [CRY1]: the protein stability index by setting is: (treatment: DMSO) 3 ± 0.085; (treatment: MLN4924 1 uM, 8 h) 2.73 ± 0.21.

Turning to EALAVLEPYARLPPHKHVARPTEV [TRIB3], the protein stability index came out at 2.72 ± 0.36 (treatment: DMSO) and 2.77 ± 0.2 (treatment: MLN4924 1 uM, 8 h).

ECRNPQELESIRQDRDALHMEGLI [FEM1B]: the protein stability index reads like this: (treatment: DMSO) 4.3 ± 0.16; (treatment: MLN4924 1 uM, 8 h) 4.31 ± 0.17.

Turning to EDDDCDDDDDDDAQILPSRVQGGC [DRICH1], the protein stability index by setting is: (treatment: DMSO) 5.47 ± 0.22; (treatment: MLN4924 1 uM, 8 h) 5.43 ± 0.11.

The sequence EDDWPRDVSLPRGAFPPRGPRPVQ [CDK4] showed a protein stability index (treatment: DMSO) of 4.57 ± 0.18 and a protein stability index (treatment: MLN4924 1 uM, 8 h) of 4.6 ± 0.24.
